# Source: patent publication US20090220476A1 (CELLECTIS, published 2009)
# T1: I-CreI Q44, A68, N70, N75, P05725
# T1 chain: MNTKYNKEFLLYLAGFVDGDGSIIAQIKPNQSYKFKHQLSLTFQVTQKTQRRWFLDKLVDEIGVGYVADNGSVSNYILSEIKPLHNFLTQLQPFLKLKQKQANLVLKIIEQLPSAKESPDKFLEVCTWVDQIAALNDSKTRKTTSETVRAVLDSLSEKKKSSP
# T2: I-CreI combinatorial mutant NNSRK/ASR, P05725
# T2 chain: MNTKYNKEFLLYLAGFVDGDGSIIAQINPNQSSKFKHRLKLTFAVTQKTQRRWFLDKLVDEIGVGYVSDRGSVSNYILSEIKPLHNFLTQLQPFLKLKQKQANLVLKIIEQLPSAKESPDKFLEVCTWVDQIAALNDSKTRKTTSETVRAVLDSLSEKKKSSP
# T3: I-CreI combinatorial mutant NNSRK/ARR, P05725
# T3 chain: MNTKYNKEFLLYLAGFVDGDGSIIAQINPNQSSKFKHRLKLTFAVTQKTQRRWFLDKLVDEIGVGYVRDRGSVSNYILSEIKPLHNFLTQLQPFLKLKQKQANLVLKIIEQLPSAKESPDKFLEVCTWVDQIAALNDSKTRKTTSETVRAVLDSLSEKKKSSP
# How the values were obtained:
# [1] = biological target: T1, I-CreI Q44, A68, N70, N75, P05725
# [2] = biological target: T2, I-CreI combinatorial mutant NNSRK/ASR, …
# [3] = biological target: the molecule itself; test: far-UV CD, 1H-NMR and analytical ultracentrifugation of purified protein; self-association (homodimer)
# Method: Novel I-CreI variants were expressed, purified, and analyzed for in vitro cleavage as reported previously (Arnould et al., precited). Circular dichroism (CD) measurements were performed on a Jasco J-810 spectropolarimeter using a 0.2 cm path length quartz cuvette. Equilibrium unfolding was induced increasing temperature at a rate of 1° C./min (using a programmable Peltier thermoelectric). Samples were prepared by dialysis against 25 mM potassium phosphate buffer, pH 7.5, at protein concentrations of 20 μM.
# Finally, analysis of the structure and stability of this group of combinatorial mutants was performed using far-UV CD (FIG. 19d), ¹H-NMR and analytical ultracentrifugation. […] Thus, the two sets of residues that were mutated, K28, N30, Y33, Q38 and S40 on one hand, Q44, R68 and R70 on the other, define two relatively independent DNA binding sub-domains.
# [4] = biological target: T3, I-CreI combinatorial mutant NNSRK/ARR, …
Protein,binding result [3],also measured
"I-CreI K44, T68, G70, N75 (protein) MNTKYNKEFLLYLAGFVDGDGSIIAQIKPNQSYKFKHQLSLTFKVTQKTQRRWFLDKLVDEIGVGYVTDGGSVSNYILSEIKPLHNFLTQLQPFLKLKQKQANLVLKIIEQLPSAKESPDKFLEVCTWVDQIAALNDSKTRKTTSETVRAVLDSLSEKKKSSP",–,"cleavage of chimeric DNA targets gtt/gcc and gtt/cct (yeast LacZ recombination assay, co-expression) [1]: co-expression of the K44, T68, G70, N75 (KTG) and Q44, A68, N70, N75 (QAN) mutants resulted in the cleavage of two chimeric targets, gtt/gcc and gtt/cct, that were not cleaved by either mutant alone"
I-CreI combinatorial mutant QNRQR/KEG (protein) MNTKYNKEFLLYLAGFVDGDGSIIAQIQPNQSRKFKHQLRLTFKVTQKTQRRWFLDKLVDEIGVGYVEDGGSVSNYILSEIKPLHNFLTQLQPFLKLKQKQANLVLKIIEQLPSAKESPDKFLEVCTWVDQIAALNDSKTRKTTSETVRAVLDSLSEKKKSSP,–,"cleavage of the chimeric site COMB1 (yeast LacZ recombination assay, co-expression) [2]: co-expression resulted in cleavage of the chimeric sequence COMB1 among all tested heterodimers (QNRQR/KEG×NNSRK/ASR named as the example with the weaker activity)"
"I-CreI combinatorial mutant NNSRK/ASR (enzyme, UniProt P05725 1-163, looked up, The scaffold ORF has three additional C-terminal codons (AAD)) MNTKYNKEFLLYLAGFVDGDGSIIAQINPNQSSKFKHRLKLTFAVTQKTQRRWFLDKLVDEIGVGYVSDRGSVSNYILSEIKPLHNFLTQLQPFLKLKQKQANLVLKIIEQLPSAKESPDKFLEVCTWVDQIAALNDSKTRKTTSETVRAVLDSLSEKKKSSP",binds,–
"I-CreI combinatorial mutant NNSRK/ARR (enzyme, UniProt P05725 1-163, looked up, The scaffold ORF has three additional C-terminal codons (AAD)) MNTKYNKEFLLYLAGFVDGDGSIIAQINPNQSSKFKHRLKLTFAVTQKTQRRWFLDKLVDEIGVGYVRDRGSVSNYILSEIKPLHNFLTQLQPFLKLKQKQANLVLKIIEQLPSAKESPDKFLEVCTWVDQIAALNDSKTRKTTSETVRAVLDSLSEKKKSSP",binds,–
"I-CreI combinatorial mutant KNHQS/KAS (enzyme, UniProt P05725 1-163, looked up, The scaffold ORF has three additional C-terminal codons (AAD)) MNTKYNKEFLLYLAGFVDGDGSIIAQIKPNQSHKFKHQLSLTFKVTQKTQRRWFLDKLVDEIGVGYVADSGSVSNYILSEIKPLHNFLTQLQPFLKLKQKQANLVLKIIEQLPSAKESPDKFLEVCTWVDQIAALNDSKTRKTTSETVRAVLDSLSEKKKSSP",binds,"in vitro cleavage of the COMB1 target by purified proteins incubated together [4]: Cleavage of the COMB1 target was also detected in vitro when the KNHQS/KAS and NNSRK/ARR purified proteins were incubated together with the COMB1 target in our conditions, while incubation of single protein did not give rise to any detectable cleavage activity. However, the cleavage efficiency was e"
"I-CreI combinatorial mutant KNHQS/KEG (enzyme, UniProt P05725 1-163, looked up, The scaffold ORF has three additional C-terminal codons (AAD)) MNTKYNKEFLLYLAGFVDGDGSIIAQIKPNQSHKFKHQLSLTFKVTQKTQRRWFLDKLVDEIGVGYVEDGGSVSNYILSEIKPLHNFLTQLQPFLKLKQKQANLVLKIIEQLPSAKESPDKFLEVCTWVDQIAALNDSKTRKTTSETVRAVLDSLSEKKKSSP",binds,"cleavage of the chimeric site COMB1 (yeast LacZ recombination assay, co-expression) [4]: co-expression resulted in cleavage of the chimeric sequence COMB1 among all tested heterodimers (KNHQS/KEG×NNSRK/ARR named as the example with the higher level of activity)"
